## purified p38 proteins activated by incubation with active Zap70
(11R)-71-85
  phosphorylation of ATF2 (in vitro kinase assay, [32P]ATP, phosphorimager): incubation with (11R)-71-85, but not (11R)-Ctrl, led to a decrease in phosphorylation of ATF2. In addition, the decrease in ATF2 phosphorylation was dependent on the dose of (11R)-71-85
(11R)-Ctrl
  phosphorylation of ATF2 (in vitro kinase assay, [32P]ATP, phosphorimager): incubation with (11R)-71-85, but not (11R)-Ctrl, led to a decrease in phosphorylation of ATF2

Reference: patent US20160083442
